This is an account of results in patent US20230272045A1.

One experiment concerns the target fibrin matrix (UniProt P02671). The experiment can be described thus: cell-based or functional assay.
Experiment [1] has as its target human plasma fibronectin (human) (UniProt P02751). The experiment can be described thus: ELISA.
The target in a further experiment is human tenascin C (human) (UniProt P24821). The experiment is described as follows: ELISA.
Experiment [2] has as its target human vitronectin (human) (UniProt P04004). The experiment can be described thus: ELISA.

Where only a bound is given, the exact number is not on record here.

Sequence of fibrin matrix (P02671 other isoform, or with tags, fused parts or gaps, chain 1 of 3): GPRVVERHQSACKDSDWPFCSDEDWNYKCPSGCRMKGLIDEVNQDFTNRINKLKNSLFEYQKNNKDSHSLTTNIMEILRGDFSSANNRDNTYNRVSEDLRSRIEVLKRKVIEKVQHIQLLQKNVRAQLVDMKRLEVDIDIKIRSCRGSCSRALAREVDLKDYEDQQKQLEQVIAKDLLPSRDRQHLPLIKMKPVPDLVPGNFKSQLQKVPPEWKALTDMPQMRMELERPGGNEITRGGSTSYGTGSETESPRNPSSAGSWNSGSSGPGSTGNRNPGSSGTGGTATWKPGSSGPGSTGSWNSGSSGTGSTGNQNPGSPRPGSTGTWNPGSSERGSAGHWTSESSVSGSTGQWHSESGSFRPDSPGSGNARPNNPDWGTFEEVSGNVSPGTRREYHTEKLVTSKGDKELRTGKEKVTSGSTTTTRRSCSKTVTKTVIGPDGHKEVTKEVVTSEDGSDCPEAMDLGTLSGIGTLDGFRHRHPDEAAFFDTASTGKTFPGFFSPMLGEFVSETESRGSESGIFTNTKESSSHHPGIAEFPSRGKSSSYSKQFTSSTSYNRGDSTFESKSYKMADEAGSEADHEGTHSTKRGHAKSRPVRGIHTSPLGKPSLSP
Sequence of fibrin matrix (P02675 45-491, chain 2 of 3, further chain): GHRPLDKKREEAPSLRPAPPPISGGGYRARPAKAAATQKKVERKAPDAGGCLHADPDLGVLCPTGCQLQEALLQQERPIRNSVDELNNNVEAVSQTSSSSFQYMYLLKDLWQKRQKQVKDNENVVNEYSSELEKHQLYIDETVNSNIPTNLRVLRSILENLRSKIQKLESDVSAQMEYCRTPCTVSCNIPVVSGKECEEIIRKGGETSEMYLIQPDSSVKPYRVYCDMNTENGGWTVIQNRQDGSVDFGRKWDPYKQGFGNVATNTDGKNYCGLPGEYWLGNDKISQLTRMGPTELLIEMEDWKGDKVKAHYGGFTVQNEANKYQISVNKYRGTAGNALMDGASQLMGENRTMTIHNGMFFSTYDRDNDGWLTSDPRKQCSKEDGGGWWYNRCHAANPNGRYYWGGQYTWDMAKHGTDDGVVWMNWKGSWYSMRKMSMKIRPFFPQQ
Sequence of fibrin matrix (P02679 other isoform, or with tags, fused parts or gaps, chain 3 of 3, further chain): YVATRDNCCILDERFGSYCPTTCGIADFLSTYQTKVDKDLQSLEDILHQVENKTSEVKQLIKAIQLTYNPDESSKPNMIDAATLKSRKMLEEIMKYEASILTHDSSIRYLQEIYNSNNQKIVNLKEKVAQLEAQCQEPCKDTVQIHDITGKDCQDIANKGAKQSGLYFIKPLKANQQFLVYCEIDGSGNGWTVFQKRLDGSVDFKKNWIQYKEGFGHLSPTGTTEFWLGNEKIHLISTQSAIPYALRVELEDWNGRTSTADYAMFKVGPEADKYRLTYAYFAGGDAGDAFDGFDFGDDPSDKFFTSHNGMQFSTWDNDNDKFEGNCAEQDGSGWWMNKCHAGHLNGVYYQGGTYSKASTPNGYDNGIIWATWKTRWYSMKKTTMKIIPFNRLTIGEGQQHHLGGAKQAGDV
Sequence of human vitronectin (human) (P04004 20-478): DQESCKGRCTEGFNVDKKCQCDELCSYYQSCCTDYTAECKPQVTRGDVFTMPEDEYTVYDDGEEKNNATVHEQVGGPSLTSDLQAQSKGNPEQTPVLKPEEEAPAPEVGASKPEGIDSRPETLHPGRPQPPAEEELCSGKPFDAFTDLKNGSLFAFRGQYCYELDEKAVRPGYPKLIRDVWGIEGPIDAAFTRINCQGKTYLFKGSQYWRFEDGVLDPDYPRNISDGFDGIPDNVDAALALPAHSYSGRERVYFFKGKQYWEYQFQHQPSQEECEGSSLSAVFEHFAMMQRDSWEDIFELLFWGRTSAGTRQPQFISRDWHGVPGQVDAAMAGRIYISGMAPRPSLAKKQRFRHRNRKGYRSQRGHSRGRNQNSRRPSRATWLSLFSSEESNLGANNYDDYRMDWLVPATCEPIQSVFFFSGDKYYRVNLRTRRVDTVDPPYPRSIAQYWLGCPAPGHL
Sequence of human tenascin C (human) (P24821 23-2201): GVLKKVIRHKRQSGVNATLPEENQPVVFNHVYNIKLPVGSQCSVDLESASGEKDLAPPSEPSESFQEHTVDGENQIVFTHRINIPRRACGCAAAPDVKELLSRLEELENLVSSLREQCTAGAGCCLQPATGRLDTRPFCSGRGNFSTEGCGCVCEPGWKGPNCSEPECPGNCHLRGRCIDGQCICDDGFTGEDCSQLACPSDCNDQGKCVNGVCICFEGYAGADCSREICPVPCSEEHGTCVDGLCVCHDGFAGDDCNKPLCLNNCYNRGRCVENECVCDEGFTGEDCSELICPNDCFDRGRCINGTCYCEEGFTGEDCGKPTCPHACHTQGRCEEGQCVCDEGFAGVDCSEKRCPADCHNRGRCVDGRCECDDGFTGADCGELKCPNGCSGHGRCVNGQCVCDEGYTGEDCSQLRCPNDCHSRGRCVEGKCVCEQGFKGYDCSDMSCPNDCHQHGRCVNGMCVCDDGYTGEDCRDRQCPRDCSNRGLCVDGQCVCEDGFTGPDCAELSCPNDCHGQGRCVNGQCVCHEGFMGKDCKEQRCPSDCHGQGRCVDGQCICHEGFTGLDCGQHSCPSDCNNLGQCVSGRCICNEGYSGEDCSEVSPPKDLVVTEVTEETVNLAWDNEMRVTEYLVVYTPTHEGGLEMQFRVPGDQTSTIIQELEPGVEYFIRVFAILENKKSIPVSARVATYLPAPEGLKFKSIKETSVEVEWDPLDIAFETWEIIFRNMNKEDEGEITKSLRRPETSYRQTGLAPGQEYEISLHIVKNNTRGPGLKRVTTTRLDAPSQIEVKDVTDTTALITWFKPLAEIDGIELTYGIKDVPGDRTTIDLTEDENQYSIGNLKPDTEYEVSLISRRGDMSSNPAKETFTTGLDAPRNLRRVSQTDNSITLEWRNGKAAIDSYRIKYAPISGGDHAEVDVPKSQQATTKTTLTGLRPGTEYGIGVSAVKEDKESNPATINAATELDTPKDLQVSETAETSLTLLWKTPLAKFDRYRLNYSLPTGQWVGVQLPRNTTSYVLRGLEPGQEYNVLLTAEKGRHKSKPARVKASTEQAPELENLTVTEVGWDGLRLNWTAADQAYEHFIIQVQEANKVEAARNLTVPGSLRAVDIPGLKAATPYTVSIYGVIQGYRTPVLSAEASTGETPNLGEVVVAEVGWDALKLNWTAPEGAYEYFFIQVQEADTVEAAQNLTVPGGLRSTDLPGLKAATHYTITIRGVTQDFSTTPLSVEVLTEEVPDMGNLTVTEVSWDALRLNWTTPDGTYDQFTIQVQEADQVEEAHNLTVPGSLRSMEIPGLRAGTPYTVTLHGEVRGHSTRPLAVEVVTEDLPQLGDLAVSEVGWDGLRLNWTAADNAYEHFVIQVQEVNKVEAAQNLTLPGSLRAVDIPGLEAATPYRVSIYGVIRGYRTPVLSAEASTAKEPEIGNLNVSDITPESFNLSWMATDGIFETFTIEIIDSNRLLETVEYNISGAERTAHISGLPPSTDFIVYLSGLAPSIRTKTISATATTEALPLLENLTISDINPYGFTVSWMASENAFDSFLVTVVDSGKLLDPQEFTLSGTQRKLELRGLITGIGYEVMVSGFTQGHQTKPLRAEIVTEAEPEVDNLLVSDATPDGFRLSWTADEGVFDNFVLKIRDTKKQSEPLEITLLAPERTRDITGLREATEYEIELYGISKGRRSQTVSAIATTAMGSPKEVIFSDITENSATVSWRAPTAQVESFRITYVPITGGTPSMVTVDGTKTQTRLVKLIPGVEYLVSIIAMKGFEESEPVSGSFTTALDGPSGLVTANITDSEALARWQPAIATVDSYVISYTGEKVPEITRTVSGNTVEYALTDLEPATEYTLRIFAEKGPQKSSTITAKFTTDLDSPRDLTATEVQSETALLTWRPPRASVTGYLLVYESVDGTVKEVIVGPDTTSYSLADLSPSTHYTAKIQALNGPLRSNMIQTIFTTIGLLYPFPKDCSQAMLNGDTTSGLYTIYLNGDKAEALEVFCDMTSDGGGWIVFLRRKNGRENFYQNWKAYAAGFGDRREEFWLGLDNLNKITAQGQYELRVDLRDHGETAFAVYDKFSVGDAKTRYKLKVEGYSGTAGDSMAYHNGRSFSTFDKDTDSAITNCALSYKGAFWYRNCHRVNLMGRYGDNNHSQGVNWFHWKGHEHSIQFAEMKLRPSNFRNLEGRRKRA

For “PIGF-1 (from UniProt P49763 19-149) (ligand)”, the release from a fibrin matrix (fraction of the protein dose released) with fibrin matrix is greater than 60%.

“AREG126-138/PDGF-BB (from UniProt P31240 80-190)”: the Kd in experiment [1] was found to be 7.9 nM; in the experiment with human tenascin C (human), 18.1 nM; in experiment [2], 1.9 nM.
